The record followed here is PMC4188031.

Experiment in all cases: SPR (ProteOn XPR36, GLC chip), co-injection mode with pH shift
Holding throughout (conditions): pH 7.4; 25°C (stated for the immobilisation step; not restated for the binding runs); 150 mM NaCl (plus 20 mM Na-phosphate); PBS-TE: 20 mM Na-phosphate; association at pH 6.0, dissociation at pH 7.4

In assay [1] the target is B21M anti-RSV IgG1 N434A N434A (EU numbering) (UniProt P01857).
Assay [2] concerns the target B21M anti-RSV IgG1 N434Y N434Y (EU numbering) (UniProt P01857).
Assay [3] deals with B21M anti-RSV IgG1, wild-type Fc (mAb WT) (UniProt P01857).

For the substance neonatal Fc receptor (rat FcRn, rFcRn), the off-rate (koff) after pH shift 6.0 to 7.4 in assay [1] was 0.09 1/s; in assay [2] it was 0.02 1/s; in assay [3], 0.07 1/s.
